From patent publication US20250236679A1 (Chugai, published 2025)

T1: human DLL3-Fc (human)
T1 construct: also called soluble DLL3 protein
T1 chain: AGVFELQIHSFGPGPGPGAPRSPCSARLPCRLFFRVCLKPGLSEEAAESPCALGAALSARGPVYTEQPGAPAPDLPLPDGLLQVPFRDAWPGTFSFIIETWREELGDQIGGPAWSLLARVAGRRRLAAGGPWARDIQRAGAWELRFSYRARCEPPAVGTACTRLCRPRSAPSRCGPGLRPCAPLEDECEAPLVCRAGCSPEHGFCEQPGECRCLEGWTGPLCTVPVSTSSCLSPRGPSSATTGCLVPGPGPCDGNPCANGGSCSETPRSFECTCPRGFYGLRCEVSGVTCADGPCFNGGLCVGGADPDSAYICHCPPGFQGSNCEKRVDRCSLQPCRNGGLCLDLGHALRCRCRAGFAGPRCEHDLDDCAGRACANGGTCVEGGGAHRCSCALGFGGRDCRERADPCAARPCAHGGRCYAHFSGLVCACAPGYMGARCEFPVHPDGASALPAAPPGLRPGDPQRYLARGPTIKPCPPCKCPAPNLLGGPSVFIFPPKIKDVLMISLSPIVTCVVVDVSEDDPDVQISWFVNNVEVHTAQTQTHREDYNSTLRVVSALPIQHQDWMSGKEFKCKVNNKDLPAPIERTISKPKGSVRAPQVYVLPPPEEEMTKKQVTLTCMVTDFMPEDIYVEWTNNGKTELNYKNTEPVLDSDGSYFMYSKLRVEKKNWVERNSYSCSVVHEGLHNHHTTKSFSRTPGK

T2: human DLL3 expressed on cells (human DLL3/BaF3) (human, UniProt Q9NYJ7 27-618)
T2 construct: Full-length human DLL3 on the membrane of transformed Ba/F3 cells; The ADCC assays also used NCI-H1184 small-cell lung cancer cells that express DLL3; also called Delta-like 3; NM_016941
T2 sequence: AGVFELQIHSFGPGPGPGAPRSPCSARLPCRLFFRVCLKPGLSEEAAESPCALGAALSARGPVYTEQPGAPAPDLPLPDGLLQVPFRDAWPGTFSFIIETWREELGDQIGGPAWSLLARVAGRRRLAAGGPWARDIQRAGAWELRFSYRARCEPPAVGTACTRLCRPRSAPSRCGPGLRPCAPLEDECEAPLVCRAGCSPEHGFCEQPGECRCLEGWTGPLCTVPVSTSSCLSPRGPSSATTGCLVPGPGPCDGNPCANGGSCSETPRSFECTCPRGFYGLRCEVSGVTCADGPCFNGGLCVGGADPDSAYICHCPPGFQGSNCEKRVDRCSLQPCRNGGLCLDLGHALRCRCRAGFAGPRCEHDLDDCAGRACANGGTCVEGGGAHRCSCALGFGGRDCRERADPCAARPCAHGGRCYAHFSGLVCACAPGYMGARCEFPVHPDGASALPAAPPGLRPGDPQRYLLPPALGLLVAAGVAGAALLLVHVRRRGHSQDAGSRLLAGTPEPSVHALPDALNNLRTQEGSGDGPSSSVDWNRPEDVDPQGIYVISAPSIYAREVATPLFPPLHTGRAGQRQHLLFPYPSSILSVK

B1: DL301 human chimeric antibody (antibody, human IgG1, kappa)
heavy: not shown
light: DIKMTQSPSSMYASLGERVTITCKASQDINSYLIWFQQKPGKSPKTLIYRTNRLVDGVPSRFSGSGSGQDYSLTISSLEYGDMGIYYCLQYDEFPFTFGSGTKLEIKRTVAAPSVFIFPPSDEQLKSGTASVVCLLNNFYPREAKVQWKVDNALQSGNSQESVTEQDSKDSTYSLSSTLTLSKADYEKHKVYACEVTHQGLSSPVTKSFNRGEC
notes: Mouse variable regions with human IgG1 constant regions; also called chimeric antibody DL301; DL301 chimeric antibody
B2: DL312 human chimeric antibody (antibody, human IgG1, kappa)
heavy: not shown
light: DIQMTQSPSSLSASLGERVSLTCRASQEISDYLSWLQQKPDGTIKRLIFAASTLDSGVPKRFSGSRSGSDFSLSISSLESEDFADYYCLQYASYPYTFGSGTKLEIKRTVAAPSVFIFPPSDEQLKSGTASVVCLLNNFYPREAKVQWKVDNALQSGNSQESVTEQDSKDSTYSLSSTLTLSKADYEKHKVYACEVTHQGLSSPVTKSFNRGEC
notes: Mouse variable regions with human IgG1 constant regions; also called chimeric antibody DL312; DL312 chimeric antibody
B3: DL309 human chimeric antibody (antibody, human IgG1, kappa)
heavy: not shown
light: DIVMTQSQKFMSTSVGDRVSVTCKASQNVGTNVAWYQQKPGQSPKALIYSASYRYSGVPDRFTGSGSGTDFTLTISNVQSEDLAEYFCQQYNNYPLTFGAGTKLELKRTVAAPSVFIFPPSDEQLKSGTASVVCLLNNFYPREAKVQWKVDNALQSGNSQESVTEQDSKDSTYSLSSTLTLSKADYEKHKVYACEVTHQGLSSPVTKSFNRGEC
notes: Mouse variable regions with human IgG1 constant regions; also called chimeric antibody DL309; DL309 chimeric antibody

Key:
[1] = target: T1, human DLL3-Fc; assay: ELISA, immobilized human DLL3-Fc
Method: The competition of a chimeric antibody and a mouse antibody for binding to the antigen molecule was analyzed by ELISA (FIG. 8 (b)). Human DLL3-Fc was added at 10 ng/well to a Nunc immunoplate and immobilized thereon. A mixture (final concentration: 50 ng/ml) of the chimeric antibody and the appropriately diluted mouse antibody was added to the DLL3-Fc protein-immobilized plate. The plate was incubated at room temperature for 1 hour and then washed. Alkaline phosphatase-labeled anti-human antibodies were added thereto and incubated. After the incubation, Sigma 104 was added thereto, and the absorbance was measured. The binding of the chimeric antibody to the antigen molecule competed with that of the original mouse monoclonal antibody thereto.

[2] = target: T2, human DLL3 expressed on cells (human …); assay: flow cytometry on human DLL3/BaF3 cells, chimeric antibody 1 µg/ml
Method: The chimeric antibody in the culture supernatant of COS-7 was confirmed to bind to the human DLL3 protein by flow cytometry and ELISA. The chimeric antibody concentration in the culture supernatant of COS-7 was calculated by sandwich ELISA. In this concentration calculation, a human chimeric antibody known for its concentration was used as a standard. The chimeric antibody (final concentration: 1 μg/ml) was added to human DLL3/BaF3 cells suspended in a FACS buffer (PBS containing 1% fetal bovine serum). After incubation at 4° C. for 30 minutes and washing, the cells were reacted with FITC-labeled anti-human antibodies (Beckman Coulter, Inc.), and the binding of the chimeric antibody was analyzed using a flow cytometer FACSCalibur. […] None of the chimeric antibodies bound to Ba/F3 cells, which were a parental line of the forced expressing cells. Human DLL3-Fc was immobilized on a Nunc immunoplate, and the binding of each chimeric antibody to the immobilized protein was analyzed. For detecting antigen-bound chimeric antibodies, the chimeric antibody was added thereto, and alkaline phosphatase-labeled anti-human antibodies (Biosource, AHI0305) and an alkaline phosphatase substrate Sigma 104 were then added in this order. The absorbance was determined. The DL301, DL309, and DL312 chimeric antibodies bound to human DLL3-Fc in a dose-dependent manner (FIG. 8(a)).
COS-7 cells were transfected with the DL306 chimeric antibody expression vector and allowed to transiently express the chimeric antibody. The chimeric antibody in the culture supernatant of COS-7 was confirmed to bind to the human DLL3 protein by flow cytometry. The chimeric antibody concentration in the culture supernatant of COS-7 was calculated by sandwich ELISA. In this concentration calculation, a human chimeric antibody known for its concentration was used as a standard. […] After incubation at 4° C. for 30 minutes and washing, the cells were reacted with FITC-labeled anti-human antibodies (Beckman Coulter, Inc.), and the binding of the chimeric antibody was analyzed using a flow cytometer FACSCalibur.

Row | binding result [1] | binding result [2] | Binder
1 | binds | binds | B1
2 | binds | binds | B2
3 | binds | binds | B3
